Experimental data reported in patent publication US20040161776A1.
Values joined by “and” are separate entries in the source; they are usually repeats but may differ in a detail not shown here. Equal values may be shown once. One block for each substance: values may come before it.

Legend:
[1] = biological target: prostate specific membrane antigen (PSMA), full-length human (human) (UniProt Q04609); assay: average, PSMA-3T3 cells
[2] = biological target: prostate specific membrane antigen (PSMA), full-length human (human) (UniProt Q04609); assay: radiolabeled mAb bound to PSMA-3T3 cell pellets
[3] = biological target: prostate specific membrane antigen (PSMA), full-length human (human) (UniProt Q04609); assay: competition on PSMA-3T3 cells; unmodified mJ591 varied, competitor 111In radiolabeled 4.40
[4] = biological target: prostate specific membrane antigen (PSMA), full-length human (human) (UniProt Q04609); assay: fraction of 177Lu labeled control antibody bound to cells, column PSMA; column 3T3 (no PSMA): 0.7
[5] = biological target: prostate specific membrane antigen (PSMA), full-length human (human) (UniProt Q04609)
[6] = biological target: prostate specific membrane antigen (PSMA), full-length human (human) (UniProt Q04609); assay: fraction of 177Lu labeled antibody bound to cells, column PSMA; column 3T3 (no PSMA): 1.7

Sequence of prostate specific membrane antigen (PSMA), full-length human (human) (Q04609 whole entry): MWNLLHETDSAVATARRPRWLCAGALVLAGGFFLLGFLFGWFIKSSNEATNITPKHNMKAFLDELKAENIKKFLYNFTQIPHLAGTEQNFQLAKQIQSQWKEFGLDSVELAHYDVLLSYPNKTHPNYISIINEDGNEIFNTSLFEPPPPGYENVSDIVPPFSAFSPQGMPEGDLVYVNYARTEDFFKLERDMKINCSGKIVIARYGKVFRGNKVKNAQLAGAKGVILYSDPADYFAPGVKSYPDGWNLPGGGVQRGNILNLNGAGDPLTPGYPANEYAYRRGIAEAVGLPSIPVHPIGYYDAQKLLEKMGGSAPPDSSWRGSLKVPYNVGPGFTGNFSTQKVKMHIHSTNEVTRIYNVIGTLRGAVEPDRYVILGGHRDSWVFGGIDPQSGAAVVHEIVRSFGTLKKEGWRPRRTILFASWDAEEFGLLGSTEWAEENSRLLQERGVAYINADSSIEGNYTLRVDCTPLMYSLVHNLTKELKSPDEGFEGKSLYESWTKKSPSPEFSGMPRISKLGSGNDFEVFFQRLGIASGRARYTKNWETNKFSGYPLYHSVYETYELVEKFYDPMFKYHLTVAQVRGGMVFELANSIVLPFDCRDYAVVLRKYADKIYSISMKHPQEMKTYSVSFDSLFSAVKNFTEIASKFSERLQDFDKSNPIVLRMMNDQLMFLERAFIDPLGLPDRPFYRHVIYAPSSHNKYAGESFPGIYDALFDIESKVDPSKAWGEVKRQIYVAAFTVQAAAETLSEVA
Sequence of mJ591 (antibody) (VH): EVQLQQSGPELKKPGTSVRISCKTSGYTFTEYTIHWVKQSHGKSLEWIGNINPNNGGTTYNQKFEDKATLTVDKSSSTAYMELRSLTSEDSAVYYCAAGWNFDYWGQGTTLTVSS
Sequence of mJ591 (antibody) (VL): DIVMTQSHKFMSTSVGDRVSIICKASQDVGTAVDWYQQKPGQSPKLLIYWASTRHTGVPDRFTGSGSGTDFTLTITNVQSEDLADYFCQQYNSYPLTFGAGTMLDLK

Immunoreactivity (%) [1]: 56.7% | Immunoreactivity (%) [2]: 58.5% and 54.9%
Substance: 111In radiolabeled CHX-A''-DTPA antibody mJ591

IC50 (read off the curve) [3]: 3 nM
Substance: mAb J591 (murine) (antibody)

Cell Based Immunoreactivity (%) [4]: 5.9% | PSMA+/PSMA- Ratio of tumor uptake, Mean [5]: 1.16
Substance: IgG (antibody)

Cell Based Immunoreactivity (%) [6]: 46.2% | PSMA+/PSMA- Ratio of tumor uptake, Mean [5]: 2.5
Substance: mJ591 (antibody)
